Legend:
[1] = molecular target: p34^cdc2 cell cycle regulatory kinase (Homo sapiens (Human)) (UniProt P06493); experiment: Western blot densitometry of p34^cdc2 bound to p107 30mer-sepharose against immunoprecipitated p34^cdc2
[2] = molecular target: p34^cdc2 cell cycle regulatory kinase (Homo sapiens (Human)) (UniProt P06493)
[3] = molecular target: p34^cdc2 cell cycle regulatory kinase (Homo sapiens (Human)) (UniProt P06493); experiment: IC50 column of Table 1 (ELISA based competition, competitor plate-bound p107 30mer)

Row | amount of p34^cdc2 associated, relative to that within the immune complexes [1] [times] | histone H1 kinase specific activity of p34^cdc2 bound to p107 30mer-sepharose [2] [%] | Substance | IC50 [3] [µM]
1 | 50 | 1.4 | p107 30 amino acid peptide (residues 692-721 of p107, encompassing alpha-helix II) | –
2 | – | – | p107 NC5mer pentapeptide (CAFYI) | 13

— patent publication US5625031
